3 substances from patent US6998240B2, “Screen for selective inhibitors or activators of Smad protein function” (Wisconsin Alumni Research Foundation, priority 2001, dated 2006) can be followed below.

A value given as a limit tells only on which side of the number the result lay.

Experiment [1] concerns the target phosphorylated Smad2 (His-tagged, full length, from Sf9 cells co-infected with Alk5 T204D virus) (UniProt Q15796). As to the kind of experiment: HTRF competition against 500 nM biotinylated FAST peptide.
Experiment [2] concerns the target T1, Phosphorylated Smad2/4 Complex (Homo sapiens, UniProt Q15796). As to the kind of experiment: microplate solid-phase assay, biotinylated GST-CBP, streptavidin-AP.
The target in experiment [3] is unphosphorylated Smad2 (His-tagged, full length) (UniProt Q15796). Briefly: microplate solid-phase assay; Smad2 0.25 ug/well; biotinylated GST-CBP 1:500.
The target is the same in experiment [4]. Briefly: microplate solid-phase assay; Smad2 0.50 ug/well; biotinylated GST-CBP 1:500.
For experiment [5] the target is unchanged. Briefly: microplate solid-phase assay; Smad2 0.25 ug/well; biotinylated GST-CBP 1:1000.
For experiment [6] the target is unchanged. Briefly: microplate solid-phase assay; Smad2 0.25 ug/well; biotinylated GST-CBP 1:2000.
Experiment [7] has the same target. Briefly: microplate solid-phase assay; Smad2 0.50 ug/well; biotinylated GST-CBP 1:1000.
Experiment [8] shares this target. Briefly: microplate solid-phase assay; Smad2 0.50 ug/well; biotinylated GST-CBP 1:2000.
Experiment [9] deals with T1, Phosphorylated Smad2/4 Complex. As to the kind of experiment: microplate solid-phase assay; Smad2P4 0.25 ug/well; biotinylated GST-CBP 1:500.
Experiment [10] shares this target. Briefly: microplate solid-phase assay; Smad2P4 0.50 ug/well; biotinylated GST-CBP 1:500.
Experiment [11] has the same target. Briefly: microplate solid-phase assay; Smad2P4 0.125 ug/well; biotinylated GST-CBP 1:500.
The target is the same in experiment [12]. As to the kind of experiment: microplate solid-phase assay; Smad2P4 0.25 ug/well; biotinylated GST-CBP 1:1000.
For experiment [13] the target is unchanged. Briefly: microplate solid-phase assay; Smad2P4 0.25 ug/well; biotinylated GST-CBP 1:2000.
Experiment [14] shares this target. Briefly: microplate solid-phase assay; Smad2P4 0.50 ug/well; biotinylated GST-CBP 1:1000.
Experiment [15] shares this target. As to the kind of experiment: microplate solid-phase assay; Smad2P4 0.50 ug/well; biotinylated GST-CBP 1:2000.
Experiment [16] has the same target. Briefly: microplate solid-phase assay; Smad2P4 0.125 ug/well; biotinylated GST-CBP 1:1000.
Experiment [17] has the same target. As to the kind of experiment: microplate solid-phase assay; Smad2P4 0.125 ug/well; biotinylated GST-CBP 1:2000.
The target of experiment [18] is unphosphorylated Smad2 (His-tagged, full length) (UniProt Q15796). As to the kind of experiment: microplate solid-phase assay; Smad2 0.25 ug/well; biotinylated GST-CBP 1:500, duplicate well.
Experiment [19] has the same target. As to the kind of experiment: microplate solid-phase assay; Smad2 0.50 ug/well; biotinylated GST-CBP 1:500, duplicate well.
Experiment [20] shares this target. As to the kind of experiment: microplate solid-phase assay; Smad2 0.25 ug/well; biotinylated GST-CBP 1:1000, duplicate well.
For experiment [21] the target is unchanged. As to the kind of experiment: microplate solid-phase assay; Smad2 0.25 ug/well; biotinylated GST-CBP 1:2000, duplicate well.
Experiment [22] shares this target. Briefly: microplate solid-phase assay; Smad2 0.50 ug/well; biotinylated GST-CBP 1:1000, duplicate well.
Experiment [23] shares this target. As to the kind of experiment: microplate solid-phase assay; Smad2 0.50 ug/well; biotinylated GST-CBP 1:2000, duplicate well.
Experiment [24] concerns the target T1, Phosphorylated Smad2/4 Complex. As to the kind of experiment: microplate solid-phase assay; Smad2P4 0.25 ug/well; biotinylated GST-CBP 1:500, duplicate well.
For experiment [25] the target is unchanged. As to the kind of experiment: microplate solid-phase assay; Smad2P4 0.50 ug/well; biotinylated GST-CBP 1:500, duplicate well.
Experiment [26] has the same target. Briefly: microplate solid-phase assay; Smad2P4 0.125 ug/well; biotinylated GST-CBP 1:500, duplicate well.
The target is the same in experiment [27]. As to the kind of experiment: microplate solid-phase assay; Smad2P4 0.25 ug/well; biotinylated GST-CBP 1:1000, duplicate well.
Experiment [28] shares this target. Briefly: microplate solid-phase assay; Smad2P4 0.25 ug/well; biotinylated GST-CBP 1:2000, duplicate well.
The target is the same in experiment [29]. Briefly: microplate solid-phase assay; Smad2P4 0.50 ug/well; biotinylated GST-CBP 1:1000, duplicate well.
For experiment [30] the target is unchanged. Briefly: microplate solid-phase assay; Smad2P4 0.50 ug/well; biotinylated GST-CBP 1:2000, duplicate well.
Experiment [31] has the same target. As to the kind of experiment: microplate solid-phase assay; Smad2P4 0.125 ug/well; biotinylated GST-CBP 1:1000, duplicate well.
The target is the same in experiment [32]. Briefly: microplate solid-phase assay; Smad2P4 0.125 ug/well; biotinylated GST-CBP 1:2000, duplicate well.
The target of experiment [33] is phosphorylated Smad2 (His-tagged, full length, from Sf9 cells co-infected with Alk5 T204D virus) (UniProt Q15796). Briefly: HTRF, biotin-FAST binding to Smad2-P, no inhibitor.

For “GST-trx-FAST fusion protein (FAST SIM peptide aptamer on thioredoxin scaffold) (from UniProt O75593 327-350) (designed binder)”, the IC50 in experiment [1] was found to be 0.25 µM.

As for “biotinylated GST-CBP protein (from UniProt P08515 1-218)”, in experiment [2], the fold more CBP bound than by an equivalent amount of unphosphorylated Smad is over 30 fold. In addition, the relative light units (RLU) in [3] is 11100 RLU; in [4] it was 26600 RLU; in [5] it was 6680 RLU; in experiment [6], 6600 RLU; in experiment [7] it was 23000 RLU; in experiment [8], 11300 RLU. For the same substance, the relative light units (RLU) in [9] was determined as 204000 RLU; in [10], 358000 RLU; in experiment [11], 72000 RLU; in experiment [12], 181000 RLU; in experiment [13], 176000 RLU; in experiment [14], 306000 RLU. The relative light units (RLU) stood at 303000 RLU in [15]; 82900 RLU in experiment [16]; 82200 RLU in experiment [17]; 8900 RLU in experiment [18]; 26300 RLU in [19]; 7830 RLU in [20]. Also, the relative light units (RLU) amounted to 4340 RLU in [21]; 23500 RLU in experiment [22]; 11000 RLU in [23]; 191000 RLU in experiment [24]; 236000 RLU in experiment [25]; 74300 RLU in [26]. The relative light units (RLU) in [27] came out at 182000 RLU; in [28], 162000 RLU; in experiment [29], 323000 RLU; in experiment [30] it was 285000 RLU; in experiment [31] it was 82300 RLU; in experiment [32] it was 85100 RLU.

With “biotinylated FAST peptide (24 mer, Smad interaction motif of human FAST) (from UniProt O75593 327-350)”, the Average Normalized Counts in experiment [33] turned out to be 1880 counts.
